Results published in article PMC2692298.

Molecular target: CXCR4 on THP-1 cells (human (endogenous in THP-1)) (UniProt P61073)
Sequence (P61073 whole entry): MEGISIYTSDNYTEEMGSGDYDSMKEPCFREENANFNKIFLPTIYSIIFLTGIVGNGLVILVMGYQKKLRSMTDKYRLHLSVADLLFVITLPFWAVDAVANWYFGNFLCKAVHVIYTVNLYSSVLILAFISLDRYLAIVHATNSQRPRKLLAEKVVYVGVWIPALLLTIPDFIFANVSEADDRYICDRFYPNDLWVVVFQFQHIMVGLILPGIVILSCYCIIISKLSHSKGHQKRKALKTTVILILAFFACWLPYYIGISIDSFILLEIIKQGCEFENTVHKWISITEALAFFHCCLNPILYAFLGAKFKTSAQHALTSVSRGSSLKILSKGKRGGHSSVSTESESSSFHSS

SDF-1 Lys27Ala, sequence (P48061 22-93 K48A): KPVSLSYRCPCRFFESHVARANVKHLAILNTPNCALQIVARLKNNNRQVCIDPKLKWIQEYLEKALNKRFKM
SDF-1 Arg47Ala, sequence (P48061 22-93 R68A): as the sequence (P48061 22-93 K48A) above, with A27K, R47A counted along it
SDF-1 Glu63Ala, sequence (P48061 22-93 E84A): as the sequence (P48061 22-93 K48A) above, with A27K, E63A counted along it
SDF-1 Glu60Ala, sequence (P48061 22-93 E81A): as the sequence (P48061 22-93 K48A) above, with A27K, E60A counted along it
SDF-1 Lys64Ala, sequence (P48061 22-93 K64A): as the sequence (P48061 22-93 K48A) above, with A27K, K43A counted along it
SDF-1 Arg47Glu, sequence (P48061 22-93 R68E): as the sequence (P48061 22-93 K48A) above, with A27K, R47E counted along it
SDF-1 Val49Ala, sequence (P48061 22-93 V70A): as the sequence (P48061 22-93 K48A) above, with A27K, V49A counted along it
SDF-1 Lys27Glu, sequence (P48061 22-93 K48E): as the sequence (P48061 22-93 K48A) above, with A27E counted along it
SDF-1 Val39Ala, sequence (P48061 22-93 V39A): as the sequence (P48061 22-93 K48A) above, with V18A, A27K counted along it

Row | EC50 of Ca2+ mobilization in THP-1 cells [nM] | Substance
1 | 12.9 | SDF1(L36C/A65C), covalently-locked symmetric dimer (from UniProt P48061 22-93) (ligand)

Molecular target: CXCR4 on THP-1 cells (human (endogenous in THP-1)) (UniProt P61073)
Remark: another data set of the same source

Row | EC50 of Ca2+ mobilization in THP-1 cells [nM] | Substance
2 | 16.8 | SDF-1 Lys27Glu (from UniProt P48061 22-93) (ligand)
3 | 4.3 | SDF-1 Arg20Ala (from UniProt P48061 22-93) (ligand)
4 | 5.1 | SDF1(H25R) (from UniProt P48061 22-93) (ligand)
5 | 5 | SDF-1 Lys64Ala (from UniProt P48061 22-93) (ligand)
6 | 3.7 | SDF-1 Glu63Ala (from UniProt P48061 22-93) (ligand)
7 | 27.1 | SDF-1 Val39Ala (from UniProt P48061 22-93) (ligand)
8 | 14.1 | SDF-1 Arg47Ala (from UniProt P48061 22-93) (ligand)
9 | 10.1 | SDF-1 Lys27Ala (from UniProt P48061 22-93) (ligand)
10 | 8.6 | SDF-1 Val49Ala (from UniProt P48061 22-93) (ligand)
11 | 654 | SDF-1 Arg47Glu (from UniProt P48061 22-93) (ligand)
12 | 3.6 | stromal cell derived factor-1 (SDF-1, also known as CXCL12), wild type (from UniProt P48061 22-93) (ligand)
13 | 4.3 | SDF-1 Arg41Ala (from UniProt P48061 22-93) (ligand)
14 | 4.1 | SDF-1 Glu60Ala (from UniProt P48061 22-93) (ligand)
